Ends that are not written are not given here.
T1: human IL-2Rβ (CD122 protein, Fc Tag) (27-239) (human, UniProt P14784 27-239)
T1 construct: range 27-239; Bought protein; also called IL-2Rβ subunit; IL-2Rβ-Fc; not shown: Fc Tag of the bought protein (ACRObiosystems ILB-H5253)
T1 sequence (looked up): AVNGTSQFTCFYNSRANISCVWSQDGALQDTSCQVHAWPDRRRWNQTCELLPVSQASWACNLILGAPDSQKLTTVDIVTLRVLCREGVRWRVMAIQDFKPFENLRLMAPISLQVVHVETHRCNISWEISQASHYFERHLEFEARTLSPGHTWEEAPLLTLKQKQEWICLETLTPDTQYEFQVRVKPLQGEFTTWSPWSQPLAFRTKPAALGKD

T2: human IL-2Rγc (CD132 protein, Fc Tag) (23-254) (human, UniProt P31785 23-254)
T2 construct: range 23-254; Bought protein; also called IL-2Rγc subunit; γc subunit; not shown: Fc Tag of the bought protein (ACRObiosystems ILG-H5256)
T2 sequence (looked up): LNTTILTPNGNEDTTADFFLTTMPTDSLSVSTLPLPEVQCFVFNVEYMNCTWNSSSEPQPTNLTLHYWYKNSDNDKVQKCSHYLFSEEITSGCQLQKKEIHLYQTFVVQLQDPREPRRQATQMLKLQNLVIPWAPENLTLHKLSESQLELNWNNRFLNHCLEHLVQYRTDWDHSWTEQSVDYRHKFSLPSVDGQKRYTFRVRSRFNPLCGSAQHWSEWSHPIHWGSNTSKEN

B1: IL-2Rβ ligand SEQ ID NO: 1044 (peptide)
peptide: RSCYYKRPRLWCSE
B2: IL-2Rγc ligand SEQ ID NO: 198 (peptide)
peptide: KVCEMWGGVLLCWN
B3: IL-2Rγc ligand SEQ ID NO: 202 (peptide)
peptide: RTCTEWENVVLCWV
modifications: not fully specified; cysteine pairing not given here
B4: IL-2Rγc ligand SEQ ID NO: 224 (peptide)
peptide: DCSMWEGVELCW
notes: also called Peptide F
B5: IL-2Rγc ligand SEQ ID NO: 236 (peptide)
peptide: MCWLEWGEWVGSCL
B6: IL-2Rγc ligand SEQ ID NO: 1051 (peptide)
peptide: DLSDLSTFWLSQ
modifications: not fully specified
notes: Family 3; also called 248 or 1051
B7: IL-2Rγc ligand SEQ ID NO: 266 (peptide)
peptide: CPSMLQGPERTWVC
B8: IL-2Rγc ligand SEQ ID NO: 948 (peptide)
peptide: SLLKCYNASTCASVF

Tests used:
[1] = molecular target: T1, human IL-2Rβ (CD122 protein, Fc Tag) …; experiment: IC50, method not told in the paragraph
[2] = molecular target: T2, human IL-2Rγc (CD132 protein, Fc Tag) …; experiment: IC50, method not told in the paragraph

Binder | IC50 [1] | IC50 [2]
B1 | < 10 µM | 
B2 |  | < 10 µM
B3 |  | < 10 µM
B4 |  | < 10 µM
B5 |  | < 10 µM
B6 |  | < 10 µM
B7 |  | < 10 µM
B8 |  | < 10 µM

— patent US20230192767A1 (MEDIKINE, published 2023)
